Experimental data: patent US20180222961A1

Molecular target: HLA-A*02:01 (human)
Assay: UV-exchange b2m ELISA; exchange-yield grade
Conditions: remark: other sources report otherwise

- peptide exchange yield: 50 to 75%
B1: … (peptide)
peptide: SVFAHPRKL
